Laboratory results taken from patent US20030229922A1, “Materials and methods for the modification of plant cell wall polysaccharides” (GENESIS RESEARCH AND DEVELOPMENT CORPORATION LTD., priority 1998, published 2003).

Substrate: O=P(O)(O)O[C@H]1O[C@H](CO)[C@@H](O)[C@H](O)[C@H]1O
Assay: purified protein, by the assay type
Details: other: E. grandis UGP; SEM 0.002

B1: Eucalyptus grandis UGP (UDP-glucose pyrophosphorylase), SEQ ID NO: 79 (DNA; protein SEQ ID NO: 103) (Eucalyptus grandis) (protein)
chain: VLFTHLPPQKPNRISLLLFFIFHITTFLLLLLLLSVLSTFISIAVSLSDPELFFASPPMAAAATLSAPDAAKLSQLKSAVSGLGQISESEKNGFINLVSRYLSGEAQHVDWSKIQTPTDEIVVPYDSLAPTPQDPAATKSLLDKLVVLKLNGGLGTTMGCTGPKSVIEVRNGLTFLDLIVIQIENLNTKYGCNVPLLLMNSFNTHDDTLKIVEKYANSNIDIHTFNQSQYPRLVVEDFMPLPCKGQTGKDGWYPPGHGDVFASLMNSGKLDALLSQGKEYVFAANSDNLGAIVDLKILNHLMTNKNEYCMEVTPKTLADVKGGTLISYEGKVQLLEIAQVPDEHINEFKSIEKFKIFNTNNLWVNLKAIKRLVEAQALKMEIIPNPKEVDGIKVLQLETAAGAAIKFFDNAIGINVPRSRFLPVKATSDLLLVQSDLYTLVDGFVERNKARTNPSNPSIELGPEFKKVGNFLSRFKSIPSIIELDSLKVSGDVWFGTGITLKGKVTIAAKPGVKLEIPDGVVLENKEIHGPEDL
- Km: 126 µM
